Our source for the Km values is article PMC10473253, “A novel salt- and organic solvent-tolerant phosphite dehydrogenase from Cyanothece sp. ATCC 51142” (Frontiers in Bioengineering and Biotechnology, 2023).

Holding throughout (assay): purified protein
What all share (type): biochemical, Crocosphaera subtropica

Substrate in data set [1]: NC(=O)c1ccc[n+]([C@@H]2O[C@H](COP(=O)(O)OP(=O)(O)OC[C@H]3O[C@@H](n4cnc5c(N)ncnc54)[C@H](O)[C@@H]3O)[C@@H](O)[C@H]2O)c1
Particulars: 1.0 mM phosphite, 100 mM MOPS pH 7.3, 37°C, text b35 prints kcat 2.24 ± 0.15.

Substrate in data set [2]: NC(=O)c1ccc[n+]([C@@H]2O[C@H](COP(=O)(O)OP(=O)(O)OC[C@H]3O[C@@H](n4cnc5c(N)ncnc54)[C@H](OP(=O)(O)O)[C@@H]3O)[C@@H](O)[C@H]2O)c1
The conditions noted are these: 1.0 mM phosphite, 100 mM MOPS pH 7.3, 37°C.

Substrate in data set [3]: O=[PH](O)O
Particulars: 1.0 mM NAD+ as co-substrate, 100 mM MOPS pH 7.3, 37°C.

B1: Ct-PtxD (Crocosphaera subtropica ATCC 51142) (protein)
chain: MNQKPKVVITHWVHPEIIDYLTPHCELILNQTKETLTREEVINRSKDAQGLMVFMPDYIDVNFLEACPQLKVISGALRGYDNFDVEACTKRNIWFTIVPDLLAAPTAELTIGLLLILARRMVEGDRLIRSGNFQGWKPQLYSTGLLNKTLGIIGMGKLGKALTKRLMGFDMTLLYHDKITLTSQQERDWKITKTSLEELLTKSDYVVLMVPLVPDTYHLINENSLKMMKPNSFLINPCRGSIVDETAVATAIKSGHLAGYAADVFEMEDWAIANRPQSINQTLLTDINHTFFTPHLGSAVNEVRRDIALEAAKNIIEVLSENRPQGAVNGIV
notes: full-length, 332 residues; pET-21b(+) NdeI/XhoI, His-tagged, E. coli Rosetta2 (DE3) pLysS
By Km is commonly meant the substrate concentration at which the rate is half of its maximum. B1: the Km in the data set “purified protein [1]” was 9.07 ± 1.05 µM; in the data set “purified protein [2]” it was 122 ± 4 µM; in “purified protein [3]”, 168 ± 25 µM.
